According to US6307026, “Humanized antibodies directed against A33 antigen” (Celltech Limited, dated 2001):

Assays:
A33 antigen [1] = biological target: T1, A33 antigen (human, UniProt Q99795); experiment: direct binding to ASPC-1 cells, FITC labelled anti-human IgG, FACScan
T1 sequence: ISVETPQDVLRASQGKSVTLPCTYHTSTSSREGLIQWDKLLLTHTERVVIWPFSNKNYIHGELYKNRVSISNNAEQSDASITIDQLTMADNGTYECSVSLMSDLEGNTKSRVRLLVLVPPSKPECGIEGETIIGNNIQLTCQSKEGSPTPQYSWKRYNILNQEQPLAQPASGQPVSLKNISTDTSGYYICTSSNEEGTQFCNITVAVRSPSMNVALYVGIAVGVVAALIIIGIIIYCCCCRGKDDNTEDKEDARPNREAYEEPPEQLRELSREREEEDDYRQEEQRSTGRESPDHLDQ
Procedure: In the direct binding assay ASPC-1 or Colo205 cells were incubated at […] for 1 h. in the presence of various amounts of murine, chimeric or humanised A33, or non-specific antibody controls.
To confirm that the sequences obtained could combine to bind to the A33 antigen the chimeric expression plasmids pRO107 and pRO108 were transiently co-expressed in CHO-L761h cells (Cockett et al., 1990) at 200 mL scale. […] The binding of the antibody to the cells was measured using FITC labelled anti-human IgG and the bound fluorescence was detected in a FACScan analyser.

A33 antigen [2] = biological target: T1, A33 antigen; experiment: competition assays of Example 1 (FITC-labelled murine A33 on cells, FACScan); reference
A33 antigen [3] = biological target: T1, A33 antigen; experiment: fluorescein-labelled antibody titrated on SW1222 cells, FACScan, Scatchard plot
Procedure: The potency of hA33 (γ1) was compared to that of murine A33 by binding to cells of the human colerectal cancer cell line SW 1222. Fluorescently labelled conjugates of purified humanised and murine A33 were prepared to give approximately 1.5 molecules of fluorescein per antibody molecule. SW1222 cells (2.8×10⁵ per tube) were incubated with the fluorescent antibodies titrated in the range 3.57 µg/ml to 12 ng/ml in PBS with 5% foetal calf serum and 0.2% sodium azide on ice for 1.5 hours. After washing, antibody bound to the surface of the cells was detected by a FACscan (Becton Dickinson) as a fluorescent signal which was converted to numbers of antibody molecules bound per cell by calibration with fluorescent microbead standards.

B1: chimeric A33(γ1) (antibody, V domains shown)
VH: EVKLVESGGGLVKPGGSLKLSCAASGFAFSTYDMSWVRQTPEKRLEWVATISSGGSYTYYLDSVKGRFTISRDSARNTLYLQMSSLRSEDTALYYCAPTTVVPFAYWGQGTLVTVSA
VL: DIVMTQSQKFMSTSVGDRVSITCKASQNVRTVVAWYQQKPGQSPKTLIYLASNRHTGVPDRFTGSGSGTDFTLTISNVQSEDLADYFCLQHWSYPLTFGSGTKLEVKR
B1: binds (A33 antigen [1]).

B2: mA33 Fab (Fab, V domains shown)
VH: EVKLVESGGGLVKPGGSLKLSCAASGFAFSTYDMSWVRQTPEKRLEWVATISSGGSYTYYLDSVKGRFTISRDSARNTLYLQMSSLRSEDTALYYCAPTTVVPFAYWGQGTLVTVSA
VL: DIVMTQSQKFMSTSVGDRVSITCKASQNVRTVVAWYQQKPGQSPKTLIYLASNRHTGVPDRFTGSGSGTDFTLTISNVQSEDLADYFCLQHWSYPLTFGSGTKLEVKR
B2: binds (A33 antigen [2]).

B3: murine monoclonal antibody A33 (antibody, V domains shown)
VH: EVKLVESGGGLVKPGGSLKLSCAASGFAFSTYDMSWVRQTPEKRLEWVATISSGGSYTYYLDSVKGRFTISRDSARNTLYLQMSSLRSEDTALYYCAPTTVVPFAYWGQGTLVTVSA
VL: DIVMTQSQKFMSTSVGDRVSITCKASQNVRTVVAWYQQKPGQSPKTLIYLASNRHTGVPDRFTGSGSGTDFTLTISNVQSEDLADYFCLQHWSYPLTFGSGTKLEVKR
modifications: FITC or fluorescein label on the antibody where it is used as labelled competitor or in the Scatchard assay (about 1.5 molecules of fluorescein per antibody molecule)
B3: binds (A33 antigen [3]).
